Read-outs that look alike come from different tables or passages of the source.

Data set [1] has as its target T1, Cy3-PARP1 (Homo sapiens, UniProt P09874 1-1014). Briefly: smTIRFM.
For data set [2], the target named is T1, Cy3-PARP1. Briefly: smTIRFM. The source holds these as a separate data set.
In data set [3] the target is T2, PARP1 (unlabeled) (Homo sapiens, UniProt P09874 1-1014). Briefly: mass photometry.
In data set [4] the target is T2, PARP1 (unlabeled). Briefly: mass photometry. The source holds these as a separate data set.
In data set [5] the target is T1, Cy3-PARP1. Briefly: smTIRFM. This is another data set of the same source.
Data set [6] concerns the target T1, Cy3-PARP1. Briefly: smTIRFM. The source holds these as a separate data set.
Data set [7] addresses T2, PARP1 (unlabeled). Briefly: mass photometry. The source holds these as a separate data set.

T2 sequence (P09874 whole entry): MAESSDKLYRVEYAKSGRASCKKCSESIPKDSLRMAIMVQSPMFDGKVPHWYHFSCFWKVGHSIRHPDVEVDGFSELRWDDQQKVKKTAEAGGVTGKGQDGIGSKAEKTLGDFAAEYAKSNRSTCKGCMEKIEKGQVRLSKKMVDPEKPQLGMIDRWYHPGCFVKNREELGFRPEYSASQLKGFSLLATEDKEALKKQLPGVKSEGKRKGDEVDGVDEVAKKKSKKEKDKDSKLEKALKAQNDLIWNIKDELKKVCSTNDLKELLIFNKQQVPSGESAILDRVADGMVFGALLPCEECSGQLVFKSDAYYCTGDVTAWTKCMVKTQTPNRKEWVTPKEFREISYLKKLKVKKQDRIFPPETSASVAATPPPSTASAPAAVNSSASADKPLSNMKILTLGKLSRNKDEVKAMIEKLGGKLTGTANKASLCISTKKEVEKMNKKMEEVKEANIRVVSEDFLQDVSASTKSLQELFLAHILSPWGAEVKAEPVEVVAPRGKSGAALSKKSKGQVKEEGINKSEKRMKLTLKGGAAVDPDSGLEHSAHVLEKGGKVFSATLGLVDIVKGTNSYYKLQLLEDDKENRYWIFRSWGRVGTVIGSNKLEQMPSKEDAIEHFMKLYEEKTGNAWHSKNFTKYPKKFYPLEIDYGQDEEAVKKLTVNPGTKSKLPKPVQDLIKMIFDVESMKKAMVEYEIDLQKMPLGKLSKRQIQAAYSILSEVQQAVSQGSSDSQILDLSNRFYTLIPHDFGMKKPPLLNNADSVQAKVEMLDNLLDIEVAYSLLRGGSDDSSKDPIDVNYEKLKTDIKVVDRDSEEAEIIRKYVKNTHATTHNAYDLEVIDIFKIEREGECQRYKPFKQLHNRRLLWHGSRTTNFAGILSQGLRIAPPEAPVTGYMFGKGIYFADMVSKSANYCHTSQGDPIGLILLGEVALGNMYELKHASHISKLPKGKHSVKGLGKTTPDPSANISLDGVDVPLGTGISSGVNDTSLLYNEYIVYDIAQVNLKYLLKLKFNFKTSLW
T1 sequence (P09874 whole entry): as above

B1: dsDNA (smTIRFM) (dsDNA)
DNA 1: CATGTAGTCACTATGCTACTGTG
DNA 2: CACAGTAGCATAGTGACTACATG
modifications: 3' biotin on strand 1
As for B1, the binding result in data set [1] was “binds”. In turn, GGGCGGGCGCGAGGGAGGGGAGG (structured_DNA, 3' biotin) [cKITG4 (smTIRFM)] showed a Kd in data set [2] of 0.04 ± 0.002 nM.

B2: cKITG4-PT (MP) (structured_DNA)
DNA: CATGTAGTCACTATGATTAGGCATAGTGACTACATGGGGCGGGCGCGAGGGAGGGGAGGATCTAATGCATTAAGTTCGCTTAATGCATTAGAT
Turning to B2, the binding result in data set [3] was “binds”.

B3: cKITG4-PT (smTIRFM) (structured_DNA)
DNA 1: TGGCGACGGCAGCGAGGCGGGCGGGCGCGAGGGAGGGGAGGTCTAATGCATTAAGTTCCTTAATGCATTAGA
DNA 2: GCCTCGCTGCCGTCGCCA
modifications: 3' biotin on strand 2
On to B3, for which the Kd in data set [2] was 3.24 ± 0.09 nM.

B4: nicked (MP) (structured_DNA)
DNA: CATGTAGTCACTATGAGGCATAGTGACTACATGATCTAATGCATTAAGTTCCTTAATGCATTAGAT
As for B4, the binding result in data set [4] is “binds”. Regarding TGGGTGGGTAGGGTGGGTTT (structured_DNA, 3' biotin) [cMYCG4], the binding result in data set [5] was “binds”.

B5: nicked (smTIRFM) (structured_DNA)
DNA 1: TGGCGACGGCAGCGAGGCTCTAATGCATTAAGTTCCTTAATGCATTAGA
DNA 2: GCCTCGCTGCCGTCGCCA
modifications: 3' biotin on strand 2
As for B5, the dissociation constant (Kd) in data set [6] came to 2.67 ± 0.16 nM; in data set [2], 3.96 ± 0.2 nM.

B6: ssDNA (dT)90 (MP) (ssDNA)
DNA: TTTTTTTTTTTTTTTTTTTTTTTTTTTTTTTTTTTTTTTTTTTTTTTTTTTTTTTTTTTTTTTTTTTTTTTTTTTTTTTTTTTTTTTTTT
In the case of B6, in data set [7], the binding result is recorded as “no binding”.

A word on the Kd: it is the constant that tells how readily two partners part at equilibrium.

These data come from PMC11741300.
